Assay results taken from CN116173202A (BEIJING DONGFANG BIOTECH CO LTD, dated 2023).
Numbering of substitutions follows the chain as printed. Read-outs that look alike come from different tables or passages of the source. One block for each binder: values may come before it.

Experiments:
Assay in all cases: cell-based or functional assay
[1] = target: T1, 人单核细胞白血病细胞(THP-1)表面LILRB4 (human, UniProt Q8NHJ6 22-448)
[2] = target: T1, 人单核细胞白血病细胞(THP-1)表面LILRB4; remark: listed apart in the source
[3] = target: T1, 人单核细胞白血病细胞(THP-1)表面LILRB4; remark: listed apart in the source

B1: MB-Ⅰ 鼠源抗LILRB4单克隆抗体 (mouse IgG1 / mouse Ck) (antibody)
heavy: QVQLQESGAELVKPGASVKLSCKASGYTFTNYWMHWVKQRPGQGLEWIGEINPSNGRTNYNEKFKTKATLTVDKSSSTAYMQLSSLTSEDSAVYYCARWGQLGLREGYYAVDYWGQGTSVTVSSAKTTPPSVYPLAPGSAAQTNSMVTLGCLVKGYFPEPVTVTWNSGSLSSGVHTFPAVLQSDLYTLSSSVTVPSSTWPSETVTCNVAHPASSTKVDKKIVPRDCGCKPCICTVPEVSSVFIFPPKPKDVLTITLTPKVTCVVVDISKDDPEVQFSWFVDDVEVHTAQTQPREEQFNSTFRSVSELPIMHQDWLNGKEFKCRVNSAAFPAPIEKTISKTKGRPKAPQVYTIPPPKEQMAKDKVSLTCMITDFFPEDITVEWQWNGQPAENYKNTQPIMDTDGSYFVYSKLNVQKSNWEAGNTFTCSVLHEGLHNHHTEKSLSHSPG
light: DIVMTQSPSSLSASLGDRVTISCRASQDISNYLNWYQQKPDGTVKLLIYYTSRLHSGVPSRFSGSGSGTDYSLTISNLEQEDIATYFCQQGNTLPPTFGGGTKLEIKADAAPTVSIFPPSSEQLTSGGASVVCFLNNFYPKDINVKWKIDGSERQNGVLNSWTDQDSKDSTYSMSSTLTLTKDEYERHNSYTCEATHKTSTSPIVKSFNRNEC
IC50, 抑制THP-1分泌ARG1 (arginase activity in supernatant, ApoE 0.5μg/mL) [1]: 46 µg/mL

B2: 人源化抗体HA-Ⅱ (human IgG1 / human Ck) (antibody, V domains shown)
VH: EVQLVESGGGLVKPGGSLRLSCAASGFTFSSYTMSWVRQAPGKGLEWVATISSGGTYTYYPDSVKGRFTISRDNAKNSLYLQMNSLRAEDTAVYYCARDGYDGFDYWGQGTTVTVSS
VL: DIVMTQTPLSLSVTPGQPASISCRSSQSLAHSNGNTYLHWYLQKPGQSPQLLIYKVSNRFSGVPDRFSGSGSGTDFTLKISRVEAEDVGVYFCSQSTHVPTFGGGTKVEIKR
IC50, 抑制THP-1分泌ARG1 (arginase activity in supernatant, ApoE 0.5μg/mL) [2]: 250 µg/mL
IC50, 生物学活性检测(报告基因), THP-1-NF-κB-Luc cells with ApoE [3]: 2.68 µg/mL

B5: MA-Ⅰ 鼠源抗LILRB4单克隆抗体 (mouse IgG1 / mouse Ck) (antibody)
heavy: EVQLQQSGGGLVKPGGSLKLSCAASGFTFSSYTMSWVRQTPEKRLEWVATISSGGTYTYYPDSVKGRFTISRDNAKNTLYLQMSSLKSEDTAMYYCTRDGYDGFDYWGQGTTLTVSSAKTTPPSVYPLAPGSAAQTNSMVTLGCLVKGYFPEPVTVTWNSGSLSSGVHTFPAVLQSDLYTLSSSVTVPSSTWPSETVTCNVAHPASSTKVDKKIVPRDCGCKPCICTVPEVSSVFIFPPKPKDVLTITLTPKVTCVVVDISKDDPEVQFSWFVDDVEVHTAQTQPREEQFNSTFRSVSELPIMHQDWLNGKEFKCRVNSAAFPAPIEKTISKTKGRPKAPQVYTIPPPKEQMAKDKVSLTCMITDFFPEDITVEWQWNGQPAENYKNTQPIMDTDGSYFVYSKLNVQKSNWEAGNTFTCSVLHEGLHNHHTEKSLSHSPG
light: DIVMTQTTLSLPVSPGDQASISCRSSQSLAHSNGNTYLHWYLQKPGQSPKLLIYKVSNRFSGVPDRFSGSGSGTDFTLKISRVEAEDLGVYFCSQSTLVPTFGGGTKLEIKADAAPTVSIFPPSSEQLTSGGASVVCFLNNFYPKDINVKWKIDGSERQNGVLNSWTDQDSKDSTYSMSSTLTLTKDEYERHNSYTCEATHKTSTSPIVKSFNRNEC
IC50, 抑制THP-1分泌ARG1 (arginase activity in supernatant, ApoE 0.5μg/mL) [1]: 23.9 µg/mL

Next, values leading:

IC50, 抑制THP-1分泌ARG1 (arginase activity in supernatant, ApoE 0.5μg/mL) [2]: 31.2 µg/mL
IC50, 生物学活性检测(报告基因), THP-1-NF-κB-Luc cells with ApoE [3]: 0.756 µg/mL
B3: 人源化抗体HA-Ⅰ (human IgG1 / human Ck) (antibody, V domains shown)
VH: B2 VH with A49S
VL: B2 VL with F92Y

IC50, 抑制THP-1分泌ARG1 (arginase activity in supernatant, ApoE 0.5μg/mL) [2]: 98.5 µg/mL
IC50, 生物学活性检测(报告基因), THP-1-NF-κB-Luc cells with ApoE [3]: 3.44 µg/mL
B4: 人源化抗体HA-Ⅲ (human IgG1 / human Ck) (antibody, V domains shown)
VH: B2 VH with A97T
VL: B2 VL with Q50K
